We go through eleven variants from IntAct's records for PubMed 35512704.

Sequences and labels used below:
B1: Mothers against decapentaplegic homolog 4 (Homo sapiens), Q13485 (parent)
chain: MDNMSITNTPTSNDACLSIVHSLMCHRQGGESETFAKRAIESLVKKLKEKKDELDSLITAITTNGAHPSKCVTIQRTLDGRLQVAGRKGFPHVIYARLWRWPDLHKNELKHVKYCQYAFDLKCDSVCVNPYHYERVVSPGIDLSGLTLQSNAPSSMMVKDEYVHDFEGQPSLSTEGHSIQTIQHPPSNRASTETYSTPALLAPSESNATSTANFPNIPVASTSQPASILGGSHSEGLLQIASGPQPGQQQNGFTGQPATYHHNSTTTWTGSRTAPYTPNLPHHQNGHLQHHPPMPPHPGHYWPVHNELAFQPPISNHPAPEYWCSIAYFEMDVQVGETFKVPSSCPIVTVDGYVDPSGGDRFCLGQLSNVHRTEAIERARLHIGKGVQLECKGEGDVWVRCLSDHAVFVQSYYLDREAGRAPGDAVHKIYPSAYIKVFDLRQCHRQMQQQAATAQAAAAAQAAAVAGNIPGPGSVGGIAPAISLSAAAGIGVDDLRRLCILRMSFVKGWGPDYPRQSIKETPCWIEIHLHRALQLLDEVLHTMPIADPQPLD
partner: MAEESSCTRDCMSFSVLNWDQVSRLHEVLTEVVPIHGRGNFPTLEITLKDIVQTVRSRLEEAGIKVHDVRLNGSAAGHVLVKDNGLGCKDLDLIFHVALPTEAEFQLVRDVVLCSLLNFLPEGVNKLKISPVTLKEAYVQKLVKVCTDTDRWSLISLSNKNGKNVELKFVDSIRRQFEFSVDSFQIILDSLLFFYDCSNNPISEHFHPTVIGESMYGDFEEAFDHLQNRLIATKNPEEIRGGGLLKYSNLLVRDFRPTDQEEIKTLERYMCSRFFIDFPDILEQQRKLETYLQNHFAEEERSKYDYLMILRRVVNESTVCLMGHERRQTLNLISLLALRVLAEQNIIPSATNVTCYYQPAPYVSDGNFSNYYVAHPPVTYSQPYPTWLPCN
B2: Mothers against decapentaplegic homolog 4 (Homo sapiens), Q13485 (parent)
chain: B1 chain
partner: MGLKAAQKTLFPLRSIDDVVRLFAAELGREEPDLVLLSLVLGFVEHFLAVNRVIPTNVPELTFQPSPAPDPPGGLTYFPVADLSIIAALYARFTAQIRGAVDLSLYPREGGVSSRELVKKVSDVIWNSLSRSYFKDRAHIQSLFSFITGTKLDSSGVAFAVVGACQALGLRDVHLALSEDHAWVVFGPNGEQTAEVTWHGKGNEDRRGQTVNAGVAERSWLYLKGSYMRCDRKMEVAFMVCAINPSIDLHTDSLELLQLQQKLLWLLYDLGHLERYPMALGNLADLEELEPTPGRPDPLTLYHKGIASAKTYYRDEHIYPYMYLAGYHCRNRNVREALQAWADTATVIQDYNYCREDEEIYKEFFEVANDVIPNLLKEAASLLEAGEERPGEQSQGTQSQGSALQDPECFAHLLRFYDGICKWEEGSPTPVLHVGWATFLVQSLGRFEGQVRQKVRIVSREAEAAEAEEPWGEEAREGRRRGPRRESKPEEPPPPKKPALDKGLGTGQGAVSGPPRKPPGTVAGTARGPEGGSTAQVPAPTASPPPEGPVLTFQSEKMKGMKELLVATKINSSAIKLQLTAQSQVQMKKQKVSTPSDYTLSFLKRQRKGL
B3: Mothers against decapentaplegic homolog 4 (Homo sapiens), Q13485 (parent)
chain: B1 chain
partner: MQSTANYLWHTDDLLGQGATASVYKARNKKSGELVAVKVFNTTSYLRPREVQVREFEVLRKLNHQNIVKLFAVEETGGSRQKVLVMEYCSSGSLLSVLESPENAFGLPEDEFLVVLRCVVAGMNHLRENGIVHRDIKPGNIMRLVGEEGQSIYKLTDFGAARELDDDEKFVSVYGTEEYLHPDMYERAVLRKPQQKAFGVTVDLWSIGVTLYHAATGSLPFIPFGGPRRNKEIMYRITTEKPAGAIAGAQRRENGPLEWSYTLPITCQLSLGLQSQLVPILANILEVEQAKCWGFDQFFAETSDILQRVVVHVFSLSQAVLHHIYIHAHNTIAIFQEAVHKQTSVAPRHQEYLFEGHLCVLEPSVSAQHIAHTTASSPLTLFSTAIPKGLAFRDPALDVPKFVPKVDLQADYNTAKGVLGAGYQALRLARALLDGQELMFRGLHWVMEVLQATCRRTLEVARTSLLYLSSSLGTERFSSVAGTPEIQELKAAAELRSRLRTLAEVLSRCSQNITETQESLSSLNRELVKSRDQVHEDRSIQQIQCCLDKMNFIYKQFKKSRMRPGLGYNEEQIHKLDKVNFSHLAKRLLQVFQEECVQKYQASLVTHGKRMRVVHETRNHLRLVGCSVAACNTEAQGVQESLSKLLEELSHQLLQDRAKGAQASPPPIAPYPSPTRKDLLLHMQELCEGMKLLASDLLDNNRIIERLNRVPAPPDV
B4: Mothers against decapentaplegic homolog 4 (Homo sapiens), Q13485 (parent)
chain: B1 chain
partner: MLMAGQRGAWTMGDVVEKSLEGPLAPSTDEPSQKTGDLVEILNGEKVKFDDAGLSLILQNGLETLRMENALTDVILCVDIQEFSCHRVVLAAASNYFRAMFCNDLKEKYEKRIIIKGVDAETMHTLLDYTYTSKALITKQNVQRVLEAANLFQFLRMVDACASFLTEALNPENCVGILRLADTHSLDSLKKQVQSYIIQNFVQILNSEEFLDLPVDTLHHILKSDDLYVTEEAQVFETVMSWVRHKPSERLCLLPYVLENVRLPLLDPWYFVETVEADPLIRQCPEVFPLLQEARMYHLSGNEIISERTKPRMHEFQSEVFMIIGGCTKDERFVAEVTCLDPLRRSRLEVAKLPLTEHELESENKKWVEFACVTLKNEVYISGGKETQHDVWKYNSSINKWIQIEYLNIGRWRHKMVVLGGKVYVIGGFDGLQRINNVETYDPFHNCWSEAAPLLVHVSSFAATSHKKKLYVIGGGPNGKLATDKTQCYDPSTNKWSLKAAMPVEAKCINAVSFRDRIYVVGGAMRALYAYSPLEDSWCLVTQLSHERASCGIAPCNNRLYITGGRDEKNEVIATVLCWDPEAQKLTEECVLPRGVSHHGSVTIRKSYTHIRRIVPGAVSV

One test covers variants of B1. As to conditions: with tet5c_human TENT5C.
For D351H, the “effect of a mutation on the interaction” value is on record as “with no effect”.

The variants in the next test derive from B2. To be noted: with men1_human MEN1, O00255.
As for R361C, the “effect of a mutation on the interaction” value is recorded as “with no effect”.

A further test covers variants of B2. As to conditions: with men1_human MEN1, O00255. The source holds these as a separate data set.
On to R361H, for which the “effect of a mutation on the interaction” value is recorded as “with no effect”.

Variants of B2 are the subject of another test. As to conditions: with men1_human MEN1, O00255. This is another data set of the same source.
Consider G386D, for which the “effect of a mutation on the interaction” value was “with no effect”.

Variants of B2 are the subject of the next test. As to conditions: with men1_human MEN1, O00255. The source holds these as a separate data set.
Regarding D351H, the “effect of a mutation on the interaction” value was “with no effect”.

The next test covers variants of B3. To be noted: with ikke_human IKBKE.
With D351H, the “effect of a mutation on the interaction” value is “with no effect”.

In a further test the parent is B3. To be noted: with ikke_human IKBKE. This is another data set of the same source.
As for G386D, the “effect of a mutation on the interaction” value was “with no effect”.

Another test covers variants of B4. As to conditions: with klhl6_human KLHL6, Q8WZ60.
Regarding D351H, the “effect of a mutation on the interaction” value was “with no effect”.

Another test covers variants of B4. As to conditions: with klhl6_human KLHL6, Q8WZ60. The source holds these as a separate data set.
As to R361H, the “effect of a mutation on the interaction” value was “with no effect”.

Variants of B4 are the subject of a further test. To be noted: with klhl6_human KLHL6, Q8WZ60. This is another data set of the same source.
As to R361C, the “effect of a mutation on the interaction” value is given as “with no effect”.

Another test covers variants of B4. To be noted: with klhl6_human KLHL6, Q8WZ60. The source holds these as a separate data set.
G386D: the “effect of a mutation on the interaction” value is on record as “with no effect”.

The variants in the next test derive from B4. As to conditions: with klhl6_human KLHL6, Q8WZ60. The source holds these as a separate data set.
G386D: the “effect of a mutation on the interaction” value is recorded as “causing an interaction”.
